Experimental data reported in paper PMC7775154.

Target: catalase (human) (UniProt P04040)
Sequence of UniProt P04040 (P04040 5-501): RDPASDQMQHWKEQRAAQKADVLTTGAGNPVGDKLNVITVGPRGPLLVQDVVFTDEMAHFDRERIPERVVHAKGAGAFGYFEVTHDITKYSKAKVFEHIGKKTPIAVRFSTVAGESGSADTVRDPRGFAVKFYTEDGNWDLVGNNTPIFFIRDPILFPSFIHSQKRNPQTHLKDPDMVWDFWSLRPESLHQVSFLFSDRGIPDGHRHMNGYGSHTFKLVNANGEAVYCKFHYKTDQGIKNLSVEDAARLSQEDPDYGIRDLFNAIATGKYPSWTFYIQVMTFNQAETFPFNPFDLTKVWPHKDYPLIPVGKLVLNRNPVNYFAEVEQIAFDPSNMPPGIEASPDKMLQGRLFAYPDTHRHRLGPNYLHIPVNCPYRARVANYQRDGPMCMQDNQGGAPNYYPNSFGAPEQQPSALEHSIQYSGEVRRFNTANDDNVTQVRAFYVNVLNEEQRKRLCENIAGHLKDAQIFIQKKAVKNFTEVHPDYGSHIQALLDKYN

- H2O2 level in the blood of healthy controls after a 2 h incubation with E22K (H2O2 kit): 86.5
Substance: Aβ42 E22K (Italian type mutation, glutamic acid 22-to-lysine) (peptide)
